Tested on: Escherichia coli TOP10
Experiment: shrunken log2 fold change of peptide-encoding DNA abundance (4.5 h post-induction vs induction); higher = less antimicrobial activity (less host growth inhibition)
Conditions: time post-induction: 4.5 h; library: site-saturation at positions 5, 18, 19, 20
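Also: peptides expressed intracellularly from a pBAD plasmid library in pooled LB shake-flask culture, induced with 0.3% L-arabinose, DNA abundance read by NGS, three biological replicates, DESeq2 with apeglm shrinkage.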

| Sequence | shrunken log2 fold change |
| --- | --- |
| RRIRHRPPRLPRPRPRPYHDPRP | -0.135 |
| RRIRHRPPRLPRPRPRPYIHPRP | -0.322 |
| RRIRHRPPRLPRPRPRPYITPRP | -1.23 |
| RRIRHRPPRLPRPRPRPYKCPRP | -0.0105 |
| RRIRHRPPRLPRPRPRPYKKPRP | -0.0963 |
| RRIRHRPPRLPRPRPRPYKPPRP | -0.466 |
| RRIRHRPPRLPRPRPRPYLMPRP | -0.554 |
| RRIRHRPPRLPRPRPRPYLVPRP | -0.162 |
| RRIRHRPPRLPRPRPRPYMTPRP | -0.313 |
| RRIRHRPPRLPRPRPRPYNMPRP | -0.186 |
| RRIRHRPPRLPRPRPRPYPAPRP | -0.425 |
| RRIRHRPPRLPRPRPRPYPHPRP | -0.495 |
| RRIRHRPPRLPRPRPRPYSKPRP | -1.03 |
| RRIRHRPPRLPRPRPRPYTTPRP | -1.14 |
| RRIRHRPPRLPRPRPRPYWEPRP | -0.238 |
| RRIRHRPPRLPRPRPRPYWSPRP | -0.171 |
| RRIRHRPPRLPRPRPRPYYLPRP | -0.72 |
| RRIRHRPPRLPRPRPRPYYVPRP | -0.0196 |
| RRIRIRPPRLPRPRPRPADAPRP | -0.291 |
| RRIRIRPPRLPRPRPRPAEAPRP | 0.0803 |
| RRIRIRPPRLPRPRPRPAENPRP | -0.0424 |
| RRIRIRPPRLPRPRPRPAEWPRP | -0.124 |
| RRIRIRPPRLPRPRPRPAFAPRP | 0.207 |
| RRIRIRPPRLPRPRPRPAGSPRP | -0.0214 |
| RRIRIRPPRLPRPRPRPAHYPRP | -0.153 |

| Sequence | shrunken log2 fold change |
| --- | --- |
| RRIRIRPPRLPRPRPRPAKWPRP | 0.109 |
| RRIRIRPPRLPRPRPRPALGPRP | 0.0956 |
| RRIRIRPPRLPRPRPRPALPPRP | -0.0671 |
| RRIRIRPPRLPRPRPRPAMYPRP | -0.733 |
| RRIRIRPPRLPRPRPRPAPLPRP | 0.276 |
| RRIRIRPPRLPRPRPRPAPMPRP | 0.0013 |
| RRIRIRPPRLPRPRPRPAQIPRP | 0.0984 |
| RRIRIRPPRLPRPRPRPARQPRP | -0.0037 |
| RRIRIRPPRLPRPRPRPASLPRP | -0.0288 |
| RRIRIRPPRLPRPRPRPASPPRP | -0.0763 |
| RRIRIRPPRLPRPRPRPATSPRP | -0.273 |
| RRIRIRPPRLPRPRPRPAVTPRP | -0.322 |
| RRIRIRPPRLPRPRPRPAVYPRP | -0.825 |
| RRIRIRPPRLPRPRPRPAYHPRP | -0.639 |
| RRIRIRPPRLPRPRPRPAYLPRP | -0.376 |
| RRIRIRPPRLPRPRPRPAYWPRP | -0.0439 |
| RRIRIRPPRLPRPRPRPAYYPRP | -0.401 |
| RRIRIRPPRLPRPRPRPCAMPRP | -0.424 |
| RRIRIRPPRLPRPRPRPCCCPRP | -0.641 |
| RRIRIRPPRLPRPRPRPCCFPRP | -0.725 |
| RRIRIRPPRLPRPRPRPCEHPRP | -0.00165 |
| RRIRIRPPRLPRPRPRPCFEPRP | -0.626 |
| RRIRIRPPRLPRPRPRPCFIPRP | -0.503 |
| RRIRIRPPRLPRPRPRPCFVPRP | -0.422 |
| RRIRIRPPRLPRPRPRPCIWPRP | -0.278 |

| Sequence | shrunken log2 fold change |
| --- | --- |
| RRIRIRPPRLPRPRPRPCKFPRP | -0.549 |
| RRIRIRPPRLPRPRPRPCKNPRP | -0.299 |
| RRIRIRPPRLPRPRPRPCLPPRP | -0.425 |
| RRIRIRPPRLPRPRPRPCMMPRP | -0.654 |
| RRIRIRPPRLPRPRPRPCNPPRP | -0.123 |
| RRIRIRPPRLPRPRPRPCRAPRP | -0.284 |
| RRIRIRPPRLPRPRPRPCRCPRP | -0.319 |
| RRIRIRPPRLPRPRPRPCRIPRP | -0.0204 |
| RRIRIRPPRLPRPRPRPCTAPRP | -0.285 |
| RRIRIRPPRLPRPRPRPCVEPRP | -0.0421 |
| RRIRIRPPRLPRPRPRPCVGPRP | -0.164 |
| RRIRIRPPRLPRPRPRPCVHPRP | -1.13 |
| RRIRIRPPRLPRPRPRPCWPPRP | -0.232 |
| RRIRIRPPRLPRPRPRPCWYPRP | -0.461 |
| RRIRIRPPRLPRPRPRPDALPRP | -0.206 |
| RRIRIRPPRLPRPRPRPDCSPRP | 0.0951 |
| RRIRIRPPRLPRPRPRPDDAPRP | -0.319 |
| RRIRIRPPRLPRPRPRPDFGPRP | -0.196 |
| RRIRIRPPRLPRPRPRPDFIPRP | -0.447 |
| RRIRIRPPRLPRPRPRPDGIPRP | -0.0104 |
| RRIRIRPPRLPRPRPRPDGKPRP | -0.000921 |
| RRIRIRPPRLPRPRPRPDIKPRP | -0.576 |
| RRIRIRPPRLPRPRPRPDIWPRP | -0.324 |
| RRIRIRPPRLPRPRPRPDLDPRP | -3.99e-05 |
| RRIRIRPPRLPRPRPRPDLRPRP | -0.0147 |

— the supplement of paper PMC9112550, “Optimization of the antimicrobial peptide Bac7 by deep mutational scanning” (BMC Biology, 2022)
